The values that follow come from PMC10016618 (Nature cell biology, 2021).

Like-named read-outs stand apart in the source and are kept apart here.

B1: Kif7-DM-GFP (1-543aa) (domain or fragment, human, UniProt Q2M1P5 1-543, looked up)
chain: MGLEAQRLPGAEEAPVRVALRVRPLLPKELLHGHQSCLQVEPGLGRVTLGRDRHFGFHVVLAEDAGQEAVYQACVQPLLEAFFEGFNATVFAYGQTGSGKTYTMGEASVASLLEDEQGIVPRAMAEAFKLIDENDLLDCLVHVSYLEVYKEEFRDLLEVGTASRDIQLREDERGNVVLCGVKEVDVEGLDEVLSLLEMGNAARHTGATHLNHLSSRSHTVFTVTLEQRGRAPSRLPRPAPGQLLVSKFHFVDLAGSERVLKTGSTGERLKESIQINSSLLALGNVISALGDPQRRGSHIPYRDSKITRILKDSLGGNAKTVMIACVSPSSSDFDETLNTLNYASRAQNIRNRATVNWRPEAERPPEETASGARGPPRHRSETRIIHRGRRAPGPATASAAAAMRLGAECARYRACTDAAYSLLRELQAEPGLPGAAARKVRDWLCAVEGERSALSSASGPDSGIESASVEDQAAQGAGGRKEDEGAQQLLTLQNQVARLEEENRDFLAALEDAMEQYKLQSDRLREQQEEMVELRLRLELVRP

For data set [1], the target named is GDP-taxol stabilized microtubules (bovine tubulin) (bovine) (UniProt Q6B856). Nature of the data set: co-sedimentation.
For data set [2] the target is unchanged. Nature of the data set: co-sedimentation. This is another data set of the same source.
Data set [3] concerns the molecule itself. Briefly: single molecule fluorescence intensity and step-photobleaching analysis.
In the next data set the target is T1, Kif7-DM (1-543aa) (human, UniProt Q2M1P5 1-543).
T1 sequence (looked up): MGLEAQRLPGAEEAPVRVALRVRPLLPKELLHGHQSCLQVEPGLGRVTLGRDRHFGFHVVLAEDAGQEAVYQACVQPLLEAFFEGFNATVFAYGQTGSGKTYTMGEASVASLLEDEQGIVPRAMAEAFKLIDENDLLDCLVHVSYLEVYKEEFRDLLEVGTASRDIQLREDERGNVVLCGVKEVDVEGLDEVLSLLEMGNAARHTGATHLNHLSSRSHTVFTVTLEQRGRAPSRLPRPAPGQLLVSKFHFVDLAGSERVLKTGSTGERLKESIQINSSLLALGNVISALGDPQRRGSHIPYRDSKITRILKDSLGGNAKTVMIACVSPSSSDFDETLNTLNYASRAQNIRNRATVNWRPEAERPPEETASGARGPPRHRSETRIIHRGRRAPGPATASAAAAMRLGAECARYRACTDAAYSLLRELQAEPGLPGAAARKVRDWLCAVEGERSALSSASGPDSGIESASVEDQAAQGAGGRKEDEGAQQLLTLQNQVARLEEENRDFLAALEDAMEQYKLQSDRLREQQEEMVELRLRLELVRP
Briefly: BLI.

The target of the data set “Kif7-DM-GFP (1-543aa)” is B1. Briefly: TIRF microscopy, recruitment to immobilised microtubules.
The target of the next data set is T2, Kif7-DM(E502A)-GFP (human, UniProt Q2M1P5 1-543, E502A).
T2 sequence (looked up): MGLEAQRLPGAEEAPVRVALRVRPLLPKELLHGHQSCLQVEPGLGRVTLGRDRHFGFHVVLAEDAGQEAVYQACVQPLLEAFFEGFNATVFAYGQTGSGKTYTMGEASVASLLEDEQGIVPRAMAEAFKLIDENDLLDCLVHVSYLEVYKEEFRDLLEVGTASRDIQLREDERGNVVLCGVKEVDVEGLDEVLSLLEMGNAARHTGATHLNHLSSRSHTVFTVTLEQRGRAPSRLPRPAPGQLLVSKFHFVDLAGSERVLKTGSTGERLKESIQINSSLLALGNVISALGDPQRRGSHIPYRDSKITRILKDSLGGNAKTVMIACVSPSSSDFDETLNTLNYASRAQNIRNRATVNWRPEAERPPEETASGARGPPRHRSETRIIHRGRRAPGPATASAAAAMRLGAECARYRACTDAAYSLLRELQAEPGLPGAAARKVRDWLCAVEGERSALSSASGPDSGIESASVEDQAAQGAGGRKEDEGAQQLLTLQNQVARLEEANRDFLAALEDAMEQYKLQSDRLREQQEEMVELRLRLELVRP
Described as above.

As to B1, the figures for the Kd in data set [1] and in data set [2] were 4230 nM and 540 nM, respectively. Also, in data set [3], the “stoichiometry N” value was determined as 2.

B2: Gli2-ZF-SNAP (domain or fragment, human, UniProt P10070 418-604, looked up)
chain: KEDLDRDDCKQEAEVVIYETNCHWEDCTKEYDTQEQLVHHINNEHIHGEKKEFVCRWQACTREQKPFKAQYMLVVHMRRHTGEKPHKCTFEGCSKAYSRLENLKTHLRSHTGEKPYVCEHEGCNKAFSNASDRAKHQNRTHSNEKPYICKIPGCTKRYTDPSSLRKHVKTVHGPDAHVTKKQRNDVH
modifications: Alexa-647 label (TIRFM assays)
In turn, B2 had a Kd with Kif7-DM (1-543aa) of 99 ± 23 nM. In the data set with Kif7-DM-GFP (1-543aa), the “fold enrichment of Gli2-ZF on microtubules over no kinesin control” value was roughly 9 fold. In addition, the binding result with Kif7-DM(E502A)-GFP is reported as “binds”.
